Assays:
[1] = biological target: CD3ζL19A-GFP (L19A murine CD3ζ-GFP fusion protein), transgenic mouse thymocytes (mouse); assay: immunoblot of whole lysates
[2] = biological target: the molecule itself; assay: immunoblot of whole lysates

| stoichiometry N [1] | Molecule | stoichiometry N [2] |
| --- | --- | --- |
| 2 | CD3ζL19A-GFP (L19A murine CD3ζ-GFP fusion protein), transgenic mouse thymocytes (natural protein) | – |
| – | CD3ζWT-GFP (wild-type murine CD3ζ-GFP fusion protein), transgenic mouse thymocytes (natural protein, UniProt P24161-1 22-164, looked up) QSFGLLDPKLCYLLDGILFIYGVIITALYLRAKFSRSAETAANLQDPNQLYNELNLGRREEYDVLEKKRARDPEMGGKQQRRRNPQEGVYNALQKDKMAEAYSEIGTKGERRRGKGHDGLYQGLSTATKDTYDALHMQTLAPR | 2 |

Reference: article PMC9295770 (Proceedings of the National Academy of Sciences of the …, 2022)
